Test [1] has as its target MET without the 47 amino acids encoded by exon 14 (H596 cells) (human) (UniProt P08581). Kind of test: cell-based or functional assay.
Test [2] deals with T1, human MET, cell-surface expressed (human, UniProt P08581 25-1390). Kind of test: cell-based or functional assay.
Test [3] concerns the target T2, murine MET-ECD (murine, UniProt P16056 25-931).
T2 construct: extracellular domain; also called mouse cMET ECD
Nature of the test: ELISA on coated murine MET-ECD. Here is the method: To measure antibody binding by ELISA, 10 μg of human, murine or chimeric MET-ECD was coated onto 96-well plates (Costar). Serial dilutions of antibodies were added to the plates and incubated at room temperature for 1 hr prior to the addition of HRP-conjugated secondary antibody. Luminescence was measured with BioTek SYNERGY™ HT plate reader, and binding EC₅₀ values were determined using […] PRISM® software.

The target in test [4] is T3, hMET R331K/S336N (human, UniProt P08581 25-1390).
T3 construct: whole, on cells; also called human to canine
Nature of the test: flow cytometry on transfected CHO cells (ND = not detectable). The method, then:
(§1) This surface-exposed cluster in the human MET (hMET) protein was replaced with corresponding amino acids from canine or murine MET. hMET mutants were then transfected into CHO cells and antibody binding affinity was measured by flow cytometry.

The target in test [5] is T4, hMET R331K/L337P (human, UniProt P08581 25-1390).
T4 construct: whole, on cells; also called human to murine
Described as above. The method, then: as §1

For test [6], the target named is T5, hMET Q328H/R331K/S336N (human, UniProt P08581 25-1390).
T5 construct: whole, on cells; also called human to canine
The test is described as above. The method, then: as §1

The target of test [7] is T6, hMET Q328N/R331K/L337P/N338S (human, UniProt P08581 25-1390).
T6 construct: whole, on cells; also called human to murine
Described as above. The method, then: as §1

Test [8] concerns the target T7, dog MET on MDCK cells (dog, UniProt Q75ZY9 25-1382).
T7 construct: whole, on cells; also called Canine (MDCK)
Kind of test: FACS, serial dilutions of Alexa647-labelled antibody on MDCK cells. The method, then: (§2) To measure antibody binding affinities against cell surface receptor, antibodies were labeled with the Alexa647 antibody labeling kit and purified per manufacturer's instruction (Invitrogen). A549 (human), 4MBr5 (monkey), MDCK (canine), and MS1 (murine) cells were resuspended in pre-chilled FACS buffer, incubated on ice for 1 hr and distributed to 96-well plates at 10⁵ cell/well. Serial dilutions of labeled antibodies were added to each well and incubated on ice for 4 hrs to allow antibody binding to reach equilibrium. Mean fluorescence intensity was analyzed using a FACS reader (ACCURI™-C6; BD Biosciences), and apparent binding affinities were determined using […] PRISM® software.
(A flow cytometer gives signals particle by particle.)

Test [9] addresses T8, mouse MET on MS1 cells (mouse, UniProt P16056 25-1379).
T8 construct: whole, on cells; also called Murine (MS1)
Nature of the test: FACS, serial dilutions of Alexa647-labelled antibody on MS1 cells. The method, then: as §2

In test [10] the target is T1, human MET, cell-surface expressed. Kind of test: FACS competition on A549 cells; competitor Ab237C. The method, then:
The binding of anti-MET antibodies to cell surface MET was analyzed by competition FACS analysis using A549 NSCLC cells (ATCC cat. no. CCL-185). […] A total of 3×10⁵ A549 NSCLC cells were added per dilution of antibody and incubated on ice for 1 hour. Cells were washed and a 1:100 dilution of PE-labeled goat anti-rat IgG antibody (BioLegend cat. no. 405406) in FACS buffer was added before incubation on ice for 1 hour. […] The geometric mean fluorescence intensity was plotted against antibody concentration. The IC₅₀ of each of the test antibodies was calculated relative to the IC₅₀ of the reference antibody.

The target in test [11] is T9, human MET-ECD with a His tag (MET-ECD-His) (human, UniProt P08581 25-932).
T9 construct: The ELISA sections speak of MET-ECD, MET-ECD-His or His-tagged MET extracellular domain; also called hu-MET-ECD; human cMET ECD
Nature of the test: competition ELISA on immobilised MET-ECD; competitor Ab237C.
Protocol: The binding of anti-MET antibodies to recombinant MET extracellular domain (“MET-ECD”) was analyzed by competition ELISA. […] The reaction was stopped with 3M HCl, absorbance read at 450 nm on a Dynex Technologies MRX TC II plate reader and the binding curves plotted. Binding curves were used to calculate IC₅₀ values for each test antibody normalized to the IC₅₀ of the reference antibody.

Numbering of substitutions follows the chain as printed.

T8 sequence (P16056 25-1379): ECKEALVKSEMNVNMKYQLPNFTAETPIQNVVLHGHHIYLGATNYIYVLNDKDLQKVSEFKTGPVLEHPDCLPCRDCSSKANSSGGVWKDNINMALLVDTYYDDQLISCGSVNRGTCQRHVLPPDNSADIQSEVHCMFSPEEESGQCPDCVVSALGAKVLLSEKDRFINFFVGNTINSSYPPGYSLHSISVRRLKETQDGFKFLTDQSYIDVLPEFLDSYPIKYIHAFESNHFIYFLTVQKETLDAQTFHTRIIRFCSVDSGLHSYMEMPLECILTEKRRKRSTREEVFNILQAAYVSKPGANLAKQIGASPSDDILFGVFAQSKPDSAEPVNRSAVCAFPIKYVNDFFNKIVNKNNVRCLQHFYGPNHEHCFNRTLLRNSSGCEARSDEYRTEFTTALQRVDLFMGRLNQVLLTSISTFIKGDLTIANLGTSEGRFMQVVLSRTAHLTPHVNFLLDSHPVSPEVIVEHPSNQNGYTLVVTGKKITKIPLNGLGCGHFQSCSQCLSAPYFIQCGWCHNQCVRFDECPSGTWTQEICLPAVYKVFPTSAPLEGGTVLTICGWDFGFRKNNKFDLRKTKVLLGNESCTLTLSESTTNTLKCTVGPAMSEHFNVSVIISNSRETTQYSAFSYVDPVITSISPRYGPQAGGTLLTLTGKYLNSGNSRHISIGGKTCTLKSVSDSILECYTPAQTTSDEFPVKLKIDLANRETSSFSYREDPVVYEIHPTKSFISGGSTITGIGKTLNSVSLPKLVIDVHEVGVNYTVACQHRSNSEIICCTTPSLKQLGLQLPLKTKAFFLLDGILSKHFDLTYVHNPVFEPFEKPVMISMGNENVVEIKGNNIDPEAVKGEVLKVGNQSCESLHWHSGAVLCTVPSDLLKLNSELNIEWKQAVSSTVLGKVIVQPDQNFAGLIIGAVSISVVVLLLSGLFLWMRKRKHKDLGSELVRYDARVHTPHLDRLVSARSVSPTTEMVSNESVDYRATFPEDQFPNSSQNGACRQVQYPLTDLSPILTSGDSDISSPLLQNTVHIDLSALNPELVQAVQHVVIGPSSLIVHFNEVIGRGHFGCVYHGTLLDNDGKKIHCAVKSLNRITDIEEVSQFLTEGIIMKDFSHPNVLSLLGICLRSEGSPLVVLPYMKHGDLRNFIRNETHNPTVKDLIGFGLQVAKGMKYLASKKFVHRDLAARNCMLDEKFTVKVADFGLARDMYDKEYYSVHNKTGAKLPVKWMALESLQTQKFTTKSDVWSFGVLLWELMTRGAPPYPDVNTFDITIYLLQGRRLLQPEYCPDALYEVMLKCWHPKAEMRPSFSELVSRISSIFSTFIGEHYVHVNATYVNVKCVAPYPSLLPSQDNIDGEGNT
T7 sequence (Q75ZY9 25-1382): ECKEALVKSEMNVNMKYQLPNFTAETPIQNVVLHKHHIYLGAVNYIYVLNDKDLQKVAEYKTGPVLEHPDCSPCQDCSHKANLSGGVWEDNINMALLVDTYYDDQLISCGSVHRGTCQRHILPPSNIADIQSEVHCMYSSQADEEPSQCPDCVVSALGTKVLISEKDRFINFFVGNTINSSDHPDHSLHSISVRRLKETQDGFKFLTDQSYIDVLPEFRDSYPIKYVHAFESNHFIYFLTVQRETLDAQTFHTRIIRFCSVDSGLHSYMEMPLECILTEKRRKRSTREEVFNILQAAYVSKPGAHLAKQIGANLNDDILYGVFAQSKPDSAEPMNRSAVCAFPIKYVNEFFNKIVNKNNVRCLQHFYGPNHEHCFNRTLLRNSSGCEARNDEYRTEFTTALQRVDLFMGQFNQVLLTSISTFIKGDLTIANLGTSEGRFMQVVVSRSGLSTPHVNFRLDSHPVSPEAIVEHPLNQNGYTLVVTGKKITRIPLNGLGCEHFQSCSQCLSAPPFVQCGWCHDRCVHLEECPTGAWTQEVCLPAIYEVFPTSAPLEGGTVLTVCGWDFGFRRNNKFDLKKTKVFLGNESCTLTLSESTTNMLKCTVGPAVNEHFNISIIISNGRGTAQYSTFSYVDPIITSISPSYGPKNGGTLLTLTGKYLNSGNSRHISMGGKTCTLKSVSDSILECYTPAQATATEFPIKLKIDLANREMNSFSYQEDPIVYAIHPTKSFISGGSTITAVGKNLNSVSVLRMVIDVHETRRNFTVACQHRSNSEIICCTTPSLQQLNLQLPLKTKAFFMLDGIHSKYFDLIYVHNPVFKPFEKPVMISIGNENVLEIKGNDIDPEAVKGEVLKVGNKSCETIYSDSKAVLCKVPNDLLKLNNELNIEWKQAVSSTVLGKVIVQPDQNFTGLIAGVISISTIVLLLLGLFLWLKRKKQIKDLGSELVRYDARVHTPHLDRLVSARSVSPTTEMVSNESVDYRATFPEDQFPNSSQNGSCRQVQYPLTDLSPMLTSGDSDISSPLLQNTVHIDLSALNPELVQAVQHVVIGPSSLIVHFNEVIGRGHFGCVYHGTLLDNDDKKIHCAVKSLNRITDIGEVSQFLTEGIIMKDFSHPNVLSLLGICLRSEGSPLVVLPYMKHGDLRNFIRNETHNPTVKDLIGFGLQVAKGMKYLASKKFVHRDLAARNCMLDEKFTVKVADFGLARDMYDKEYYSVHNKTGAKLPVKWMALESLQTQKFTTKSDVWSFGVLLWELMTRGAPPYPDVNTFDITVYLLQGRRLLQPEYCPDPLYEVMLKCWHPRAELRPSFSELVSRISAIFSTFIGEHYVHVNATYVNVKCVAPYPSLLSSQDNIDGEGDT
T2 sequence (P16056 25-931): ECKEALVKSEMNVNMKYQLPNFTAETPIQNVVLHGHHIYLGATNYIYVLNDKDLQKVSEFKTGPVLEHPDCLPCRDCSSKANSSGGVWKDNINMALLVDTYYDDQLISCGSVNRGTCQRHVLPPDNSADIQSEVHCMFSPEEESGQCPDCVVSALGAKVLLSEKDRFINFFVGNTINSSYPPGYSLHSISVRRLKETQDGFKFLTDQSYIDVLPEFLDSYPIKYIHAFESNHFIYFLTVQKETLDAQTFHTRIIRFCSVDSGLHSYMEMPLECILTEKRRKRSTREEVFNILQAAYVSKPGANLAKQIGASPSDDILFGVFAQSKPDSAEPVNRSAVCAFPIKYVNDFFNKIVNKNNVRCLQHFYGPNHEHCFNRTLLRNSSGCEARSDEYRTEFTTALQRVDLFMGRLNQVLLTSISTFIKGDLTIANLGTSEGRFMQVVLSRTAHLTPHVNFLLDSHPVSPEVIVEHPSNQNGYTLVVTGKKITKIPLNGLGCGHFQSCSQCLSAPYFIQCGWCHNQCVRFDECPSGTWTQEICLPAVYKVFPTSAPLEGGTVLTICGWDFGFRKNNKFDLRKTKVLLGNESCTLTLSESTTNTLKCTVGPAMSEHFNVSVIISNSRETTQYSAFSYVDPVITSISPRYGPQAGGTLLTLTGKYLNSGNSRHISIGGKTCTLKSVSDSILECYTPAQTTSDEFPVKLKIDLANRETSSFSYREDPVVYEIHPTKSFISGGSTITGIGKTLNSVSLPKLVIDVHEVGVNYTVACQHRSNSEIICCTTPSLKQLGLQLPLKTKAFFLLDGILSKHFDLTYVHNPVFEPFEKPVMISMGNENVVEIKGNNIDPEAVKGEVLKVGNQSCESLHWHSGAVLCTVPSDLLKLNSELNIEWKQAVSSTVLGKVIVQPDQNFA

In test [1], “HGF (from UniProt P14210 32-728) (ligand)” had a receptor degradation, H596 cells, 1 nM HGF for 24 hrs of 30%. In addition, the receptor degradation, cell lines expressing wild-type MET such as A549 and U87MG, 1 nM HGF in test [2] is 80%.

B1: Ab237C-IgG2 (antibody, V domains shown)
VH: EVQLVESGGGLVQPGRSLKLSCAASGFTFSDSYMAWVRQAPTKGLEWVASISSDGGGTYYRDSVKGRFSISRDNAKSSLYLQMDSLRSEDTATYYCTTEGIYTTDYYPYCFNYWGHGVMVTVSA
VL: DIQMTQSPGSLSASLGETVTIECLASADIHSNLAWYQQKPGNSPQLLIYYGNNLNDGVPSRFSGSGSGTQYSLKINSLQSEDVSIYFCQQSYDSPPTFGAGTKLEIKR
As to B1, in test [2], the “maximal percent induction of MET degradation in SNU-5 cells” value (shortened to “maximal percent induction”) came out at 81% and the “percent inhibition of MET phosphorylation in SNU-5 cells” value (“percent inhibition” for short) was 72%.

B2: Ab237 (antibody, rat IgG2a, V domains shown)
VH: B1 VH
VL: B1 VL
notes: Rat IgG2a, kappa
With B2, the binding result in test [3], in test [4], in test [5], in [6], in test [7] and in test [8] was “no binding” in each case. For the same molecule, in [9], the binding result is on record as “no binding”.

B3: Ab241 (antibody, human IgG1, V domains shown)
VH: B1 VH with R16G, T42G, S69T, S88T, H116Q, A124S
VL: DIQMTQSPSSLSASVGDRVTITCLASADIHSNLAWYQQKPGKAPQLLIYYGNNLNDGVPSRFSGSGSGTDYTLKINSLQSEDVAIYFCQQSYDSPPTFGQGTKLEIKR
notes: Composite human (humanized) antibody, human IgG1, kappa
Take B3: in [10], the “relative IC50 (against Ab237C)” value is ~1.22 relative to IC50 of Ab237C. For the same molecule, the “IC50 relative to the IC50 of Ab237C” value in test [11] is ~0.97 relative to IC50 of Ab237C.

B4: Ab239C (antibody, human IgG1, V domains shown)
VH: EVQLVESGGGLVQPGRSLKLSCAASGFSFTDCYMAWVRQAPTKGLEWVASISSDGGGTYYRDSVKGRFTISRDNARSSLYLEMDSLRSEDTATYYCTTERYYDGTYYGYWYFDFWGPGTMVTVSA
VL: GQFTLTQPKSVSGSLRSTITIPCVRSSGDIGDRYVSWYQQRLGRPPLNVIYAADQRPSEVSDRFSGSIDSSSNSASLTITDLQMDDEADYFCQSYDSNIDIVFGGGTKLEIKR
As for B4, in test [2], the “maximal percent induction” value was 36% and the “percent inhibition” value was 33%.

B5: Ab239C-IgG2 (antibody, V domains shown)
VH: B4 VH
VL: B4 VL
For B5, in test [2], the “maximal percent induction” value is 75% and the “percent inhibition” value was 75%.

B6: Ab239 (antibody, rat IgG2a, V domains shown)
VH: B4 VH
VL: B4 VL
notes: Rat IgG2a, lambda
Take B6: the binding result in test [3], in test [8] and in test [9] was “no binding” each time.

B7: Ab235C (antibody, human IgG1, V domains shown)
VH: QVQLQQSGAELMKPGASVKISCKATGYTFSNYWIEWVKQRPGHGLEWIGEILPGSDYTKYNEKFKGKATFTADTSSNTAYMQLSSLTSEDSAVYYCARPSTIPPDCWGQGTTLTVSA
VL: QIVLTQSPAIMSTSPGEKVTMTCSASSSVNYMFWYQQKAGSSPRLLIYDTFNLASGVPVRFSGSGSGTSYSLTISRMEAEDAATYYCQQWSIYPYTFGGGTKLEIKR
With B7, in [2], the “maximal percent induction” value turned out to be 6% and the “percent inhibition” value was found to be 10%.

B8: Ab235C-IgG2 (antibody, V domains shown)
VH: B7 VH
VL: B7 VL
Regarding B8, in test [2], the “maximal percent induction” value was found to be 64% and the “percent inhibition” value came to 64%.

B9: Ab236C-IgG2 (antibody, V domains shown)
VH: B7 VH with V2A, T28I, N31S, Y57F, T58I, N61S, S85N, I102V
VL: B7 VL with T13A, N30S, A39P, F51S, N52D, I92N
On to B9, for which, in [2], the “maximal percent induction” value came to 69% and the “percent inhibition” value is 75%.

B10: Ab236 (antibody, mouse IgG1, V domains shown)
VH: B7 VH with V2A, T28I, N31S, Y57F, T58I, N61S, S85N, I102V
VL: B7 VL with T13A, N30S, A39P, F51S, N52D, I92N
notes: Mouse IgG1, kappa
Take B10: the binding result in test [3], in test [8] and in [9] was “no binding” throughout.

B11: Ab236C (antibody, human IgG1, V domains shown)
VH: B7 VH with V2A, T28I, N31S, Y57F, T58I, N61S, S85N, I102V
VL: B7 VL with T13A, N30S, A39P, F51S, N52D, I92N
In the case of B11, in test [2], the “maximal percent induction” value is 19% and the “percent inhibition” value is 17%.

B12: Ab235 (antibody, mouse IgG1, V domains shown)
VH: B7 VH
VL: B7 VL
notes: Mouse IgG1, kappa
As to B12, the binding result in test [3], in test [8] and in test [9] was “no binding” throughout.

B13: Ab238C (antibody, human IgG1, V domains shown)
VH: QVTLKESGPGILQPSQTLSLTCTFSGFSLSTYGMGVAWIRQPSGKDLEWLANIWWDDVNYSNPSLKNRLTISKDTSNNQVFLQITNVDTAETATYYCARIGTSHIVDAWGQGASVTVSA
VL: DIRMTQSPASLSASLGETVNIECLASEDIYSDLAWYQQKPGKSPQLLIYNANTLQNGVPSVFSGSGSGTQYSLKINNLHSEDVATYFCQQYNNYPPTFGGGTKLEIKR
Regarding B13, in test [2], the “maximal percent induction” value was found to be 39% and the “percent inhibition” value was determined as 19%.

B14: Ab238 (antibody, rat IgG2a, V domains shown)
VH: B13 VH
VL: B13 VL
notes: Rat IgG2a, kappa
As for B14, the binding result in [3], in [4], in [5], in test [6], in test [7] and in [8] was “no binding” in each case. Further, the binding result in test [9] is listed as “no binding”.

B15: Ab238C-IgG2 (antibody, V domains shown)
VH: B13 VH
VL: B13 VL
On to B15, for which, in [2], the “maximal percent induction” value turned out to be 35% and the “percent inhibition” value is 24%.

Source of the values: patent US20180057595A1 (CELLDEX THERAPEUTICS, published 2018).
